The source of these data is US20180244760A1.

The target of test [1] is Clostridium difficile toxin A (TcdA) (Clostridium difficile) (UniProt P16154). The test is described as follows: cell-based or functional assay.
Test [2] has the same target. Kind of test: ELISA, plate coated with 1 ug/ml TcdA.

Chain of Clostridium difficile toxin A (TcdA) (Clostridium difficile) (P16154 whole entry): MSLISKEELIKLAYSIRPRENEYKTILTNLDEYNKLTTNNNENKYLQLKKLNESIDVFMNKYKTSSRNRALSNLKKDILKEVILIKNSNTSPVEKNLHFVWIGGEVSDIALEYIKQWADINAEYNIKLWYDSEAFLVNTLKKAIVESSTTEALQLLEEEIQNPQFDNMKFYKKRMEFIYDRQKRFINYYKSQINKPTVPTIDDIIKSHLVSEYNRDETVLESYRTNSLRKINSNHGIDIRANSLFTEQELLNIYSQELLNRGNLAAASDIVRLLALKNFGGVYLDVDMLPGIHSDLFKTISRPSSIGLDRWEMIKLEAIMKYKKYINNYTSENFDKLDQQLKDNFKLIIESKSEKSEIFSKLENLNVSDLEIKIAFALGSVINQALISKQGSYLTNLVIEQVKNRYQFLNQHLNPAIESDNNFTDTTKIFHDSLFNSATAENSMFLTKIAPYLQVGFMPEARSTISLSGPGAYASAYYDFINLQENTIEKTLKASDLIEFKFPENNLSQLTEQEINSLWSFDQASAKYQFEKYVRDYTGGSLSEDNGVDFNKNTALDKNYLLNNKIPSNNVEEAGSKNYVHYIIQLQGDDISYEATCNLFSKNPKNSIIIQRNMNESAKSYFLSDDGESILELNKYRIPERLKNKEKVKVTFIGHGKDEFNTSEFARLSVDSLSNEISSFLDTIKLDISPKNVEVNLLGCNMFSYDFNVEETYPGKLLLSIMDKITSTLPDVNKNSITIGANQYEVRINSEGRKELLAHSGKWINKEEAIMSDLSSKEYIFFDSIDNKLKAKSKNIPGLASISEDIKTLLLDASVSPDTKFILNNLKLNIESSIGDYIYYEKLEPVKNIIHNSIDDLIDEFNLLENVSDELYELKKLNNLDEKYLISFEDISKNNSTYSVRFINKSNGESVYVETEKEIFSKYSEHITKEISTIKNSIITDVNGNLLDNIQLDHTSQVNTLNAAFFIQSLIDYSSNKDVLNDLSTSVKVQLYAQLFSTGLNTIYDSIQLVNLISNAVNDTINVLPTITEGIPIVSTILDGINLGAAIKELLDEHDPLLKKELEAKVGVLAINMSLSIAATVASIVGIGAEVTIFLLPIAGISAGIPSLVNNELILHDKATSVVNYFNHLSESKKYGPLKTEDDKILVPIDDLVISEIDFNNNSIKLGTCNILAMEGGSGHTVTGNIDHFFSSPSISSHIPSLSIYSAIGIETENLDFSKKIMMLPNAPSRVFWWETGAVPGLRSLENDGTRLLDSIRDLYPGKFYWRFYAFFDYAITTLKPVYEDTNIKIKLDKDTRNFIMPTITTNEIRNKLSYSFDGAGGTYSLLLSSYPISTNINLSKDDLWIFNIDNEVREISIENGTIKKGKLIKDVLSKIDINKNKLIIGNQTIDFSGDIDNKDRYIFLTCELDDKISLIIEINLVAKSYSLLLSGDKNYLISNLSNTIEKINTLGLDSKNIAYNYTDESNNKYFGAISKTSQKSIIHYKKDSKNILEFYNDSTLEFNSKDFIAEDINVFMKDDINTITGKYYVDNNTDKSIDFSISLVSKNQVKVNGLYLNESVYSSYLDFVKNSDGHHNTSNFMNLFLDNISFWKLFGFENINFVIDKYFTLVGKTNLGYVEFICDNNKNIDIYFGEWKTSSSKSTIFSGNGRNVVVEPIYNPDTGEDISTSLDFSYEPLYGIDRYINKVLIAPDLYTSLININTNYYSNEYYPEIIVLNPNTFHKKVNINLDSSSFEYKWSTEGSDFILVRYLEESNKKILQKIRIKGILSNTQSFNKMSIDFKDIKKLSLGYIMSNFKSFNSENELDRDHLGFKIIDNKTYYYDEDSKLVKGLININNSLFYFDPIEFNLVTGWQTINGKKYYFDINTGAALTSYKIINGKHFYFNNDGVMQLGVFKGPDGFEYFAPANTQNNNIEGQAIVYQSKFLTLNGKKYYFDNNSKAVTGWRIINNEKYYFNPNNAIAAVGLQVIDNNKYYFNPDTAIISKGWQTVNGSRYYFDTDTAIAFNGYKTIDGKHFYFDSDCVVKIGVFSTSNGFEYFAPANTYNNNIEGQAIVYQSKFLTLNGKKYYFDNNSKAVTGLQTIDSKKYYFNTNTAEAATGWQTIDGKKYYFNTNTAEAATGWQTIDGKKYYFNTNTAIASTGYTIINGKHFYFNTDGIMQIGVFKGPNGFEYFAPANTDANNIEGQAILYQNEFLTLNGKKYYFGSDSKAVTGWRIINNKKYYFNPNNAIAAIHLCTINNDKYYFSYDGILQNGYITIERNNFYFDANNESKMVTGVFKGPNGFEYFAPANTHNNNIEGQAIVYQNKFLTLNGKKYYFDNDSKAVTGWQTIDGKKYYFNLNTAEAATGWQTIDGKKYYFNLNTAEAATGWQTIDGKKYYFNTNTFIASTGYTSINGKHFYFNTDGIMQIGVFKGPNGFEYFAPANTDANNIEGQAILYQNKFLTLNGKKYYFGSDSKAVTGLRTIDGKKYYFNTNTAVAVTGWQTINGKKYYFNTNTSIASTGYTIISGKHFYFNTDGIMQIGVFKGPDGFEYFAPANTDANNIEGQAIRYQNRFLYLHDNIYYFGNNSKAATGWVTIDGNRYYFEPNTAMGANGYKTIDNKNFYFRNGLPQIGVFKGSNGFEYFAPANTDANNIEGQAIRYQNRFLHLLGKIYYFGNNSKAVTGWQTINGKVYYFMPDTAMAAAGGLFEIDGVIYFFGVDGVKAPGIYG

With “Merck anti-TcdA human monoclonal antibody”, the minimal dose of antibody protecting Vero cells from TcdA-induced cell rounding in test [1] was more than 10 nM. Moreover, the EC50 (read off the curve) in test [2] came out at 2 ng/mL.
